The chains are these.
T1: EsCas13d, nuclease-dead (Eubacterium siraeum, UniProt B0MS50, R295A;H300A;R849A;H854A)
T1 sequence: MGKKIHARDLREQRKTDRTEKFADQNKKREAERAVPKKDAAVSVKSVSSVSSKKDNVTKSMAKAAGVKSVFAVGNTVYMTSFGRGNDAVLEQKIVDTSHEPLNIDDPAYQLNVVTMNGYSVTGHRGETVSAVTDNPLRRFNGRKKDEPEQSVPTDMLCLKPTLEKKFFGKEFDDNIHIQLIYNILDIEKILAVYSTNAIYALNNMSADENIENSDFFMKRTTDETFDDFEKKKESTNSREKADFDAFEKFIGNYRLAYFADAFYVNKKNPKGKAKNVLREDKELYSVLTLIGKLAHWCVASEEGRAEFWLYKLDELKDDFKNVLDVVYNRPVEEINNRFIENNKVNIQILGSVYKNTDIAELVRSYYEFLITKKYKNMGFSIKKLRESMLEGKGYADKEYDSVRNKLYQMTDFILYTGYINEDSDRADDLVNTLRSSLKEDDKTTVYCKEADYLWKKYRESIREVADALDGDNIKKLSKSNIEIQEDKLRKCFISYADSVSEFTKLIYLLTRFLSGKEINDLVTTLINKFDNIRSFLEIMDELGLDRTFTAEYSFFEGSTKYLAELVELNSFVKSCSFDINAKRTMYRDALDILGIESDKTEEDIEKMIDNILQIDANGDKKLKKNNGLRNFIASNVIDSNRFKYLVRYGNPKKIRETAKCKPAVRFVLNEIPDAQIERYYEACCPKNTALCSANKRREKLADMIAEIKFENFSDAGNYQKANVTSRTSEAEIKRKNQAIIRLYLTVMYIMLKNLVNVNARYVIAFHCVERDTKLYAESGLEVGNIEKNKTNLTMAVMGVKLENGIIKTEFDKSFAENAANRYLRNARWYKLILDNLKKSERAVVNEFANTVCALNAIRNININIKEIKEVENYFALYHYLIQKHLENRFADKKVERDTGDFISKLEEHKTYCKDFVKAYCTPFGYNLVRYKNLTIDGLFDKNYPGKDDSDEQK

B1: target 1 C6G,C7A (mixed)
RNA 1: CACCCGUGCAAAAAUGCAGGGGUCUAAAACUGAGCGGAUAACCUCUCUAUGG
RNA 2: GGGAAUGGAUCCACAUCUACGAAUUCGUACCAUAGAGAGGUUAUAGGCUCACCGAGAUCGGAAGAGCACACGU
B2: target 1 U10G,A20U (mixed)
RNA 1: CACCCGUGCAAAAAUGCAGGGGUCUAAAACUGAGCGGAUAACCUCUCUAUGG
RNA 2: GGGAAUGGAUCCACAUCUACGAAUUCGUACCUUAGAGAGGUGAUCCGCUCACCGAGAUCGGAAGAGCACACGU
B3: target 1 insU 3' of 22,insG 3' of 20 (mixed)
RNA 1: CACCCGUGCAAAAAUGCAGGGGUCUAAAACUGAGCGGAUAACCUCUCUAUGG
RNA 2: GGGAAUGGAUCCACAUCUACGAAUUCGUACUCAGUAGAGAGGUUAUCCGCUCACCGAGAUCGGAAGAGCACACGU
B4: target 1 C7A,U11A (mixed)
RNA 1: CACCCGUGCAAAAAUGCAGGGGUCUAAAACUGAGCGGAUAACCUCUCUAUGG
RNA 2: GGGAAUGGAUCCACAUCUACGAAUUCGUACCAUAGAGAGGAUAUACGCUCACCGAGAUCGGAAGAGCACACGU
B5: target 1 insG 3' of 19,insA 3' of 8 (mixed)
RNA 1: CACCCGUGCAAAAAUGCAGGGGUCUAAAACUGAGCGGAUAACCUCUCUAUGG
RNA 2: GGGAAUGGAUCCACAUCUACGAAUUCGUACCAUGAGAGAGGUUAUACCGCUCACCGAGAUCGGAAGAGCACACGU
B6: target 1 insG 3' of 19,insU 3' of 6 (mixed)
RNA 1: CACCCGUGCAAAAAUGCAGGGGUCUAAAACUGAGCGGAUAACCUCUCUAUGG
RNA 2: GGGAAUGGAUCCACAUCUACGAAUUCGUACCAUGAGAGAGGUUAUCCUGCUCACCGAGAUCGGAAGAGCACACGU
B7: target 1 insU 3' of 14,insA 3' of 2 (mixed)
RNA 1: CACCCGUGCAAAAAUGCAGGGGUCUAAAACUGAGCGGAUAACCUCUCUAUGG
RNA 2: GGGAAUGGAUCCACAUCUACGAAUUCGUACCAUAGAGAUGGUUAUCCGCUCAACCGAGAUCGGAAGAGCACACGU
B8: target 1 insG 3' of 19,insG 3' of 14 (mixed)
RNA 1: CACCCGUGCAAAAAUGCAGGGGUCUAAAACUGAGCGGAUAACCUCUCUAUGG
RNA 2: GGGAAUGGAUCCACAUCUACGAAUUCGUACCAUGAGAGAGGGUUAUCCGCUCACCGAGAUCGGAAGAGCACACGU
B9: target 1 insC 3' of 5,insC 3' of 5 (mixed)
RNA 1: CACCCGUGCAAAAAUGCAGGGGUCUAAAACUGAGCGGAUAACCUCUCUAUGG
RNA 2: GGGAAUGGAUCCACAUCUACGAAUUCGUACCAUAGAGAGGUUAUCCGCCCUCACCGAGAUCGGAAGAGCACACGU
B10: target 1 complement block 3-8 (mixed)
RNA 1: CACCCGUGCAAAAAUGCAGGGGUCUAAAACUGAGCGGAUAACCUCUCUAUGG
RNA 2: GGGAAUGGAUCCACAUCUACGAAUUCGUACCAUAGAGAGGUUAAGGCGACACCGAGAUCGGAAGAGCACACGU
B11: target 1 insU 3' of 21,insC 3' of 15 (mixed)
RNA 1: CACCCGUGCAAAAAUGCAGGGGUCUAAAACUGAGCGGAUAACCUCUCUAUGG
RNA 2: GGGAAUGGAUCCACAUCUACGAAUUCGUACCUAUAGAGCAGGUUAUCCGCUCACCGAGAUCGGAAGAGCACACGU
B12: target 1 insA 3' of 22,insG 3' of 14 (mixed)
RNA 1: CACCCGUGCAAAAAUGCAGGGGUCUAAAACUGAGCGGAUAACCUCUCUAUGG
RNA 2: GGGAAUGGAUCCACAUCUACGAAUUCGUACACAUAGAGAGGGUUAUCCGCUCACCGAGAUCGGAAGAGCACACGU
B13: target 1 U8G,A18G (mixed)
RNA 1: CACCCGUGCAAAAAUGCAGGGGUCUAAAACUGAGCGGAUAACCUCUCUAUGG
RNA 2: GGGAAUGGAUCCACAUCUACGAAUUCGUACCAUGGAGAGGUUAGCCGCUCACCGAGAUCGGAAGAGCACACGU
B14: target 1 insA 3' of 19,insC 3' of 12 (mixed)
RNA 1: CACCCGUGCAAAAAUGCAGGGGUCUAAAACUGAGCGGAUAACCUCUCUAUGG
RNA 2: GGGAAUGGAUCCACAUCUACGAAUUCGUACCAUAAGAGAGGCUUAUCCGCUCACCGAGAUCGGAAGAGCACACGU
B15: target 1 C2U,A14G (mixed)
RNA 1: CACCCGUGCAAAAAUGCAGGGGUCUAAAACUGAGCGGAUAACCUCUCUAUGG
RNA 2: GGGAAUGGAUCCACAUCUACGAAUUCGUACCAUAGAGGGGUUAUCCGCUUACCGAGAUCGGAAGAGCACACGU
B16: target 1 insC 3' of 13,insA 3' of 10 (mixed)
RNA 1: CACCCGUGCAAAAAUGCAGGGGUCUAAAACUGAGCGGAUAACCUCUCUAUGG
RNA 2: GGGAAUGGAUCCACAUCUACGAAUUCGUACCAUAGAGAGCGUUAAUCCGCUCACCGAGAUCGGAAGAGCACACGU
B17: target 1 U10G,C21U (mixed)
RNA 1: CACCCGUGCAAAAAUGCAGGGGUCUAAAACUGAGCGGAUAACCUCUCUAUGG
RNA 2: GGGAAUGGAUCCACAUCUACGAAUUCGUACUAUAGAGAGGUGAUCCGCUCACCGAGAUCGGAAGAGCACACGU
B18: target 1 insC 3' of 20,insA 3' of 5 (mixed)
RNA 1: CACCCGUGCAAAAAUGCAGGGGUCUAAAACUGAGCGGAUAACCUCUCUAUGG
RNA 2: GGGAAUGGAUCCACAUCUACGAAUUCGUACCACUAGAGAGGUUAUCCGACUCACCGAGAUCGGAAGAGCACACGU
B19: target 1 insU 3' of 18,insU 3' of 15 (mixed)
RNA 1: CACCCGUGCAAAAAUGCAGGGGUCUAAAACUGAGCGGAUAACCUCUCUAUGG
RNA 2: GGGAAUGGAUCCACAUCUACGAAUUCGUACCAUAUGAGUAGGUUAUCCGCUCACCGAGAUCGGAAGAGCACACGU
B20: target 1 G13U,C21U (mixed)
RNA 1: CACCCGUGCAAAAAUGCAGGGGUCUAAAACUGAGCGGAUAACCUCUCUAUGG
RNA 2: GGGAAUGGAUCCACAUCUACGAAUUCGUACUAUAGAGAUGUUAUCCGCUCACCGAGAUCGGAAGAGCACACGU
B21: target 1 A14C,G15U (mixed)
RNA 1: CACCCGUGCAAAAAUGCAGGGGUCUAAAACUGAGCGGAUAACCUCUCUAUGG
RNA 2: GGGAAUGGAUCCACAUCUACGAAUUCGUACCAUAGAUCGGUUAUCCGCUCACCGAGAUCGGAAGAGCACACGU
B22: target 1 G12U,G17U (mixed)
RNA 1: CACCCGUGCAAAAAUGCAGGGGUCUAAAACUGAGCGGAUAACCUCUCUAUGG
RNA 2: GGGAAUGGAUCCACAUCUACGAAUUCGUACCAUAUAGAGUUUAUCCGCUCACCGAGAUCGGAAGAGCACACGU
B23: target 1 U3A,U11A (mixed)
RNA 1: CACCCGUGCAAAAAUGCAGGGGUCUAAAACUGAGCGGAUAACCUCUCUAUGG
RNA 2: GGGAAUGGAUCCACAUCUACGAAUUCGUACCAUAGAGAGGAUAUCCGCACACCGAGAUCGGAAGAGCACACGU
B24: target 1 insA 3' of 15,insC 3' of 9 (mixed)
RNA 1: CACCCGUGCAAAAAUGCAGGGGUCUAAAACUGAGCGGAUAACCUCUCUAUGG
RNA 2: GGGAAUGGAUCCACAUCUACGAAUUCGUACCAUAGAGAAGGUUACUCCGCUCACCGAGAUCGGAAGAGCACACGU
B25: target 1 insU 3' of 14,insC 3' of 1 (mixed)
RNA 1: CACCCGUGCAAAAAUGCAGGGGUCUAAAACUGAGCGGAUAACCUCUCUAUGG
RNA 2: GGGAAUGGAUCCACAUCUACGAAUUCGUACCAUAGAGAUGGUUAUCCGCUCACCCGAGAUCGGAAGAGCACACGU
B26: target 1 del9,del19 (mixed)
RNA 1: CACCCGUGCAAAAAUGCAGGGGUCUAAAACUGAGCGGAUAACCUCUCUAUGG
RNA 2: GGGAAUGGAUCCACAUCUACGAAUUCGUACCAAGAGAGGUUUCCGCUCACCGAGAUCGGAAGAGCACACGU
B27: target 1 insG 3' of 11,insC 3' of 3 (mixed)
RNA 1: CACCCGUGCAAAAAUGCAGGGGUCUAAAACUGAGCGGAUAACCUCUCUAUGG
RNA 2: GGGAAUGGAUCCACAUCUACGAAUUCGUACCAUAGAGAGGUGUAUCCGCUCCACCGAGAUCGGAAGAGCACACGU

Usually Kd stands for the free concentration of one partner at which half of the binding sites on the other are occupied at equilibrium, for simple one-to-one binding. A lower Kd goes with tighter binding.

The target in this series is T1, EsCas13d, nuclease-dead. Description: crRNA (strand 1, pre-loaded); Mg2+; 40 mM Tris-HCl pH 7.5, 150 mM NaCl, 6 mM MgCl2, 1 mM DTT, 0.1% Tween-20, 0.2 mg/ml BSA; 25 C; 10 min per concentration, then washed. Conditions: tags: His6-TwinStrep-SUMO cleaved; N-terminal SNAP kept (SNAP-Surface 488); label: 3' end held by stalled T7 RNA polymerase.
On to B1, for which the equilibrium dissociation constant (Kd) amounted to 8.9 ± 0.4 nM.

Molecule B2 yielded a Kd of 60 ± 18 nM.

B3 showed a dissociation constant Kd of 78 ± 24 nM.

With B4, the Kd is 17.9 ± 1.3 nM.

Regarding B5, the affinity, expressed as Kd, was 57 ± 7 nM.

Take B6: binding was put at a Kd of 82 ± 9 nM. This Kd and that of the molecule before are within 1.5-fold of each other.

Take B7: the equilibrium dissociation constant (Kd) worked out at 43 ± 6 nM.

B8 displayed a Kd of 75 ± 16 nM.

B9 returned a Kd of 25.7 ± 3.2 nM.

The molecule B10 came in with a Kd of 9.9 ± 0.4 nM.

B11 had a Kd of 55 ± 7 nM.

For B12, the affinity, expressed as Kd, was 21.7 ± 3.2 nM.

Take B13: the affinity, expressed as Kd, was 66 ± 21 nM. Against the preceding molecule, the Kd is about 3-fold higher.

As to B14, the equilibrium dissociation constant (Kd) was 70 ± 31 nM.

The molecule B15 had a dissociation constant Kd of 15 ± 0.7 nM.

B16: binding was characterised by a dissociation constant (Kd) of 12.7 ± 0.6 nM.

Molecule B17 registered a Kd of 11.7 ± 0.8 nM.

Molecule B18 returned a Kd of 7.3 ± 1.1 nM.

With B19, the dissociation constant Kd turned out to be 50 ± 12 nM.

In turn, B20 gave a Kd of 10.5 ± 0.9 nM. Compared with the last molecule, the Kd is about 4.8-fold lower.

B21 registered an equilibrium dissociation constant (Kd) of 35 ± 6 nM.

With B22, the equilibrium dissociation constant (Kd) is 31.3 ± 3.5 nM.

On to B23, for which binding was put at a Kd of 12.7 ± 0.7 nM.

For B24, the dissociation constant (Kd) amounted to 9 ± 0.9 nM.

B25 yielded a dissociation constant (Kd) of 42 ± 7 nM. This Kd is about 4.7-fold higher than that of the molecule before.

B26 had a dissociation constant (Kd) of 86 ± 33 nM.

In the case of B27, the Kd was found to be 51 ± 8 nM.
